Consider 1 substance from publication PMC10754036.

The target in this assay is PSD95, His tagged recombinant (UniProt P78352). In words: BLI.
Sequence of PSD95, His tagged recombinant (P78352 whole entry): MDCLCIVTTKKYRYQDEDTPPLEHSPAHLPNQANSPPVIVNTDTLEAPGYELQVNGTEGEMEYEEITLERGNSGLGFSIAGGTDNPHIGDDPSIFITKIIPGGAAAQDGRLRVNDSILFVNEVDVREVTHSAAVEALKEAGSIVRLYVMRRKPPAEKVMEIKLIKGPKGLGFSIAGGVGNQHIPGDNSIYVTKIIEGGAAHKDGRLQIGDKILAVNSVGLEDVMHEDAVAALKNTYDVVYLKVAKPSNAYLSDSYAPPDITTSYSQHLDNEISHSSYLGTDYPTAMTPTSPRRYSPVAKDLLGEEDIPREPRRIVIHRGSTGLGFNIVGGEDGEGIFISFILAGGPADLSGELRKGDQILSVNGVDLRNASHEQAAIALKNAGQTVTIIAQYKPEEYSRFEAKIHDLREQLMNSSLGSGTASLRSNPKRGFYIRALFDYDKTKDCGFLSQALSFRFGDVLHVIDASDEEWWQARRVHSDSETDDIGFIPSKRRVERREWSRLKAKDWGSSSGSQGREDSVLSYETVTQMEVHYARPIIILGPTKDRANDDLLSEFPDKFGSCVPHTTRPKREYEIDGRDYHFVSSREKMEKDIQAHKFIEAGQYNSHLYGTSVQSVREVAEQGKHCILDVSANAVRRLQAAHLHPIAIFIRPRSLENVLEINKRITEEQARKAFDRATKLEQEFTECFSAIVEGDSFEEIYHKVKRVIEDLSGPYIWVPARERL

Take “NS1-SUMO (1918 NS1 covalently fused with SUMO at its C-terminus), His tagged recombinant”: the Kd (commonly the free concentration of one partner at which half of the binding sites on the other are occupied at equilibrium, for simple one-to-one binding) amounted to 630 nM.
